Data on five molecules can be found in patent publication US20200317768A1 (published 2020).

In general, Kd refers to the free concentration of one partner at which half of the binding sites on the other are occupied at equilibrium, for simple one-to-one binding.

Experiment [1] deals with T1, cynomolgus monkey FcγRIIa2 extracellular domain, C-terminal His-tag (cynomolgus monkey).
T1 construct: also called cyno FcγRIIa2; cynoFcgRIIa2; not shown: His-tag added to C-terminus
T1 chain: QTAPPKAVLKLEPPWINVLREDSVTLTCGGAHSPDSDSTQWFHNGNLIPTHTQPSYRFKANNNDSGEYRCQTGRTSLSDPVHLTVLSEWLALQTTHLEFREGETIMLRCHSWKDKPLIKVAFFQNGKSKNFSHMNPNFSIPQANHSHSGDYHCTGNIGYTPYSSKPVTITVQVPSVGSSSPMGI
Nature of the experiment: SPR (Biacore), KD of SG1 / KD of variant. (In general: SPR reads the build-up and loss of mass on a sensor chip optically.)

Experiment [2] has as its target T2, cynomolgus monkey FcγRIIa3 extracellular domain, C-terminal His-tag (cynomolgus monkey).
T2 construct: also called cyno FcγRIIa3; cynoFcgRIIa3; not shown: His-tag added to C-terminus
T2 chain: T1 chain with K127I, N130K, H133P, Q142R
Kind of experiment: SPR (Biacore), KD of SG1 / KD of variant.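 Note: relative to parent M103205H795-SG1 carrying the SG1 human heavy chain constant region.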

Experiment [3] concerns the target T3, cynomolgus monkey FcγRIIb extracellular domain, C-terminal His-tag (cynomolgus monkey).
T3 construct: also called cyno FcγRIIb; cynoFcγRIIb; not shown: His-tag added to C-terminus
T3 chain: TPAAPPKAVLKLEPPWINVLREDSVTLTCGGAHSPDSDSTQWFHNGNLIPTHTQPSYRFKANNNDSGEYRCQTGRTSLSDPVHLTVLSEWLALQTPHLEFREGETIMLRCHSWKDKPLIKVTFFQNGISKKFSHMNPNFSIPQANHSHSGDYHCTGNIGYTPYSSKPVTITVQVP
Kind of experiment: SPR (Biacore), KD of SG1 / KD of variant.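 Note: relative to parent M103205H795-SG1 carrying the SG1 human heavy chain constant region.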

Experiment [4] has as its target T4, cynomolgus monkey FcγRIIIaS extracellular domain, C-terminal His-tag (cynomolgus monkey, UniProt A3RFZ7 21-206 (rhesus entry)).
T4 construct: also called cyno FcγRIIIaS; cynoFcγRIIIaS; not shown: His-tag added to C-terminus
Kind of experiment: SPR (Biacore), KD of SG1 / KD of variant.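 Note: relative to parent M103205H795-SG1 carrying the SG1 human heavy chain constant region.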

Experiment [5] addresses T5, human FcγRIIaH extracellular domain, C-terminal His-tag (human, UniProt P12318 34-217).
T5 construct: also called human FcγRIIa (type H); FcgRIIaH; not shown: His-tag added to C-terminus
T5 sequence: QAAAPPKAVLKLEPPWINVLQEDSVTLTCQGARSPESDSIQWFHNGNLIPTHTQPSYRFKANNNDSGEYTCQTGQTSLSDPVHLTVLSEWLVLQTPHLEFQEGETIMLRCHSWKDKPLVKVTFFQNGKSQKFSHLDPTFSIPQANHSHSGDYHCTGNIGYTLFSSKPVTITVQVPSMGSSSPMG
Kind of experiment: SPR (Biacore), KD of SG1 / KD of variant.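 Note: relative to parent M103205H795-SG1 carrying the SG1 human heavy chain constant region.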

Experiment [6] addresses T6, human FcγRIIaR extracellular domain, C-terminal His-tag (human, UniProt P12318 34-217).
T6 construct: also called human FcγRIIa (type R); FcgRIIaR; not shown: His-tag added to C-terminus
T6 chain: T5 sequence with H134R
Nature of the experiment: SPR (Biacore), KD of SG1 / KD of variant.

Experiment [7] deals with T7, human FcγRIIb extracellular domain, C-terminal His-tag (human, UniProt P31994 43-217).
T7 construct: also called FcgRIIb (human); not shown: His-tag added to C-terminus
T7 sequence: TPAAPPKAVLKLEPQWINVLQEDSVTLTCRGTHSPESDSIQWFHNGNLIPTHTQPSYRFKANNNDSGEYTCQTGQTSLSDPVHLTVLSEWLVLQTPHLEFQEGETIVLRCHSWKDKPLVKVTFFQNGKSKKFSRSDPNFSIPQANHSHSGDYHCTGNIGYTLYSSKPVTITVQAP
Nature of the experiment: SPR (Biacore), KD of SG1 / KD of variant.

Experiment [8] deals with T8, human FcγRIIIaV extracellular domain, C-terminal His-tag (human, UniProt P08637 17-208).
T8 construct: also called FcgRIIIaV; not shown: His-tag added to C-terminus
Kind of experiment: SPR (Biacore), KD of SG1 / KD of variant.

The target of experiment [9] is T5, human FcγRIIaH extracellular domain, …. Nature of the experiment: SPR (Biacore), antibody captured, FcgR analyte, 25 C.

Changes are numbered by the printed parent chain.

T4 sequence (A3RFZ7 21-206): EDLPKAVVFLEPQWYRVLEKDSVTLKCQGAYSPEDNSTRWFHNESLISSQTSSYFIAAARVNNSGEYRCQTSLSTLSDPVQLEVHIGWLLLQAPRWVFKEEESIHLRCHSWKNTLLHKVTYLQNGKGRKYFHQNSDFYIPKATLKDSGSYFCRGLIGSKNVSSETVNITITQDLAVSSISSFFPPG
T8 sequence (P08637 17-208 F176V): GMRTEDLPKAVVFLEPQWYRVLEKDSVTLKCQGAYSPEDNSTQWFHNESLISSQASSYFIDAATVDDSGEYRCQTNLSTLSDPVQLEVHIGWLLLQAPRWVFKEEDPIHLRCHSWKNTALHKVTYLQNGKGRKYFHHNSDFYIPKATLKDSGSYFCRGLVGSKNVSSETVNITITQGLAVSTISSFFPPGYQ

B1: M103205H795-MY310/M103202L889-SK1 (antibody, human IgG1, kappa)
heavy: QVTLKESGPVLVKPTETLTLTCTVSGIDLSHDDISWVRQAPGKGLEWVGIISYAGSTYYASWAKGRLTISKDTSKNQVVLTMTNMDPVDTATYYCARGVPAYSHGGDLWGQGTLVTVSSASTKGPSVFPLAPSSKSTSGGTAALGCLVKDYFPEPVTVSWNSGALTSGVHTFPAVLQSSGLYSLSSVVTVPSSSLGTQTYICNVNHKPSNTKVDKKVEPKSCDKTHTCPPCPAPELLTGPSVFLFPPKPKDTLMISRTPEVTCVVVDVSEEDPEVKFNWYVDGVEVHNAKTKPREEQYNSTYRVVSVLTVLHQDWLNGKEYKCKVSNTALPKPIEKTISKAKGQPREPQVYTLPPSREEMTKNQVSLTCLVKGFYPSDIAVEWESNGQPENNYKTTPPVLDSDGSFFLYSKLTVDKSRWQQGNVFSCSVMHEALHNHYTQKSLSLSP
light: DIVMTQSPATLSLSPGERATLSCTSSQSVYHANWLSWFQQKPGQPPKLLIYWASTLAYGVPSRFSGSGSGTDFTLTISSLQPEDAATYYCAGGYGGGRYAFGQGTKVEIKRTVAAPSVFIFPPSDEQLKSGTASVVCLLNNFYPREAKVQWKVDNALQSGNSQESVTEQDSKDSTYSLSSTLTLSKADYEKHKVYACEVTHQGLSSPVTKSFNRGEC
Take B1: the “KD fold (SG1 = 1)” value in experiment [1] was found to be 1.8 fold; in experiment [2], 2.4 fold; in experiment [3] it was 1.9 fold; in [4], 0.2 fold; in experiment [5] it was 1.7 fold; in [6], 2 fold. Further, the “KD fold (SG1 = 1)” value in experiment [7] came to 1.6 fold; in [8], 0.12 fold. Further, the dissociation constant Kd in experiment [9] turned out to be 400 nM.

B2: M103205H795-MY321/M103202L889-SK1 (antibody, human IgG1, kappa)
heavy: B1 heavy with T238H, E270D, T328K, P398M
light: B1 light
On to B2, for which the “KD fold (SG1 = 1)” value in [1] was found to be 2.3 fold; in experiment [2], 3.9 fold; in experiment [3], 2.8 fold; in experiment [4], 0.33 fold; in experiment [5] it was 3.7 fold; in experiment [6], 2.9 fold. In addition, the “KD fold (SG1 = 1)” value in experiment [7] was 1.8 fold; in [8], 0.74 fold. The same molecule showed a Kd in [9] of 71 nM.

B3: M103205H795-MY312/M103202L889-SK1 (antibody, human IgG1, kappa)
heavy: B1 heavy with P398M
light: B1 light
For the molecule B3, the “KD fold (SG1 = 1)” value in [1] is 3.4 fold; in experiment [2], 4.6 fold; in experiment [3], 4.5 fold; in [4] it was 0.55 fold; in experiment [5] it was 6.3 fold; in [6] it was 6.5 fold. Besides, the “KD fold (SG1 = 1)” value in experiment [7] was 4.2 fold; in [8], 0.29 fold. For the same molecule, in [9], binding was characterised by a dissociation constant (Kd) of 110 nM.

B4: M103205H795-MY311/M103202L889-SK1 (antibody, human IgG1, kappa)
heavy: B1 heavy with Q297L, T328K
light: B1 light
Consider B4, for which the “KD fold (SG1 = 1)” value was found to be 1.5 fold in experiment [1]; 2 fold in experiment [2]; 2.3 fold in [3]; 0.35 fold in experiment [4]; 3.5 fold in [5]; 2.4 fold in [6]. In addition, the figures for the “KD fold (SG1 = 1)” value in experiment [7] and in experiment [8] were 2.2 fold and 0.11 fold, respectively. This molecule also came in with an equilibrium dissociation constant (Kd) in experiment [9] of 200 nM.

B5: M103205H795-MY318/M103202L889-SK1 (antibody, human IgG1, kappa)
heavy: B1 heavy with T238L, P398M
light: B1 light
Regarding B5, the “KD fold (SG1 = 1)” value came out at 0.7 fold in experiment [1]; 0.5 fold in [2]; 0.8 fold in [3]; 0.24 fold in experiment [4]; 0.6 fold in experiment [5]; 0.8 fold in experiment [6]. Also, the figures for the “KD fold (SG1 = 1)” value in experiment [7] and in experiment [8] were 1 fold and 0.05 fold, respectively. Moreover, in [9], binding was put at a Kd of 1100 nM.
